Reference: patent publication US8084418B2

Molecular target: XptA2wi (Xenorhabdus nematophilus str Xwi)

Substance: XptB1xb + XptC1xb
- dead corn earworm larvae of 8 (pDAB6026 lysate + purified XptA2wi) (dead insects (of 8)): 8
